Patent US20260085129A1 (ECO ANIMAL HEALTH, published 2026)

Experiments:
[1] = biological target: T1, porcine CD163 with deletion of SRCR domain 5, on pPAMΔ5 cells (porcine, UniProt Q2VL90 47-1115); assay: P.E. binding FACS on pPAMΔ5 cells
T1 construct: also called pPAMΔ5 domain cells; pPAMΔ5 WT cells
T1 sequence: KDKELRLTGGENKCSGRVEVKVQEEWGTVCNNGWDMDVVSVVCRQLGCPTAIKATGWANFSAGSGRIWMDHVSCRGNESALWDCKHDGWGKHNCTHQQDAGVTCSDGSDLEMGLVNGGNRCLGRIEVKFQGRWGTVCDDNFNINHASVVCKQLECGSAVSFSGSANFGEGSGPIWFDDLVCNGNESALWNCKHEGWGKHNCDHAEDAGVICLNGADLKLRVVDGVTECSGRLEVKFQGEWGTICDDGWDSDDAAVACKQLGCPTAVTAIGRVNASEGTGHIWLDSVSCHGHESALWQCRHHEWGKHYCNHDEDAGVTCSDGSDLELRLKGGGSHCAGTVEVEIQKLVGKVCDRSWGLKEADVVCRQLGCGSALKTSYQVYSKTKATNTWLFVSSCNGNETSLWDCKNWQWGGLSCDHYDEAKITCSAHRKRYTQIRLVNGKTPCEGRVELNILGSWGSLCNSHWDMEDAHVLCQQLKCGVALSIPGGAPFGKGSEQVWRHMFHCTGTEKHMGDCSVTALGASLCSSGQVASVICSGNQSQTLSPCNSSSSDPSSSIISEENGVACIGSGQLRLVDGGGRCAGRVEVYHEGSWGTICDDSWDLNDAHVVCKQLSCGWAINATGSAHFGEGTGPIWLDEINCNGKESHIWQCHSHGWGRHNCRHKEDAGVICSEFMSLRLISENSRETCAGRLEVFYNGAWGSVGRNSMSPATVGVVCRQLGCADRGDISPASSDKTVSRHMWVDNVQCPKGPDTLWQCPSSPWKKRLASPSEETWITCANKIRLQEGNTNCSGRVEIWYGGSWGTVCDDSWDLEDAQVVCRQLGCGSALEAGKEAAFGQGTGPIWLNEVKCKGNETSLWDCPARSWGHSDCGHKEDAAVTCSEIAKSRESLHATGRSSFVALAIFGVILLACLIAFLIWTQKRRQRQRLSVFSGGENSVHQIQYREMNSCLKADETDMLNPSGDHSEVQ
Method: Periplasmic Extract (P.E) from the selected clones were incubated with anti-c-myc antibody (Roche; Cat. nr. 11667203001), specific to the c-myc tag present in the soluble VHH, for 30 minutes with agitation at room temperature (RT). The mix (P.E+anti-c-myc antibody) was added to the pPAM WT or pPAMΔ5 domain (cells with deletion of SRCR domain 5) and incubated for 60 min at 4° C. with gentle shaking.
Cells were washed 3× with 150 μl/well of FACS Buffer and incubated with 50 μl/well of the secondary antibody GAM-APC for 30 min at 4° C. and protected from the light, with shaking.

pCD163-SRCR-FL-PST2-His = biological target: T2, pCD163-SRCR-FL-PST2-His (porcine, UniProt Q2VL90 51-1044); assay: Biacore 3000 SPR, antigen amine-coupled on CM5 chip, VHH 200-12.5 nM, pH 7.4, 1:1 binding with mass transfer
T2 construct: also called pCD163-1-PST2-His; pCD163-SRCR1-PST2; not shown: His tag
T2 sequence: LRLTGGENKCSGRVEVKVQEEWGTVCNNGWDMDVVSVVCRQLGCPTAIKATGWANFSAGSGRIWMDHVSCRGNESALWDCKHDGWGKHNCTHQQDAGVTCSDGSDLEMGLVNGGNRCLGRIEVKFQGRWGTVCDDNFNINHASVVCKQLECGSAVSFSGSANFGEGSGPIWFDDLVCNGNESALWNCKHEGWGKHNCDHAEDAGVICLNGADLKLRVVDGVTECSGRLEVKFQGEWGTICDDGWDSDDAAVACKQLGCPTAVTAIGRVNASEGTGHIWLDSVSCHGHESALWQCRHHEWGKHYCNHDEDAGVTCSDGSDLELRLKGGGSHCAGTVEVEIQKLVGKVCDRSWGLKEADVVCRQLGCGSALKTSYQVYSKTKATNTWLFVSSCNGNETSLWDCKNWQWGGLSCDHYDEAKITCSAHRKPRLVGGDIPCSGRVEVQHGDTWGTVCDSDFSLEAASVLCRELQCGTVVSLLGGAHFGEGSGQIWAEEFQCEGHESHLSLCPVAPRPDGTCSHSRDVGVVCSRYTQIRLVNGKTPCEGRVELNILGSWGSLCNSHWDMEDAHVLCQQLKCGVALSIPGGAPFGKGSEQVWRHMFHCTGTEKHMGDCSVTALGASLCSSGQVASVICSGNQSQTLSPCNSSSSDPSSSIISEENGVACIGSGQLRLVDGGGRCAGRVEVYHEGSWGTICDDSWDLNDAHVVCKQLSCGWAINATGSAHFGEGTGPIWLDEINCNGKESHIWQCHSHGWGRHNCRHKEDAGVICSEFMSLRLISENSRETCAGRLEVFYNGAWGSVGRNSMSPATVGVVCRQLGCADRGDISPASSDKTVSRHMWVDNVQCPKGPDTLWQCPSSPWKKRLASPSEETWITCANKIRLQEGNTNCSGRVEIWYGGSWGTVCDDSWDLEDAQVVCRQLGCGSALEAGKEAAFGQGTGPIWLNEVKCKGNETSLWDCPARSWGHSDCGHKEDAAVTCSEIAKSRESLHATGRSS
Method: Surface plasmon resonance (SPR) (Biacore 3000, GE Healthcare) was used to determine the binding kinetics of selected single domain antibodies at pH7.4. Approximately 2075 to 2423 RUs of pCD163-SRCR1-9-huFc or 2859 to 3286 RUs of pCD163-1-PST2-His. respectively, at 20 or 30 μg/ml in Acetate buffer pH 5.0 or pH 5.5 were immobilized onto a CM5 chip using the standard amine coupling procedure.
1×HBS-EP pH 7.4, was utilized as a running buffer during binding kinetic measurements. Purified VHH were injected at 2-fold dilution from 200 nM down to 12.5 nM in HBS-EP pH 7.4, at 30 μl/min for 2 minutes, followed by an off-rate wash for 1 min between injections. Off-rate wash was 300s after the last concentration injection in each cycle. RU levels were restored to base levels after regeneration with two injections of 10 μl of 1 M NaCl, 1 mM Glycine pH 1.5 between samples.
Fitting 1:1 binding with mass transfer was applied to the set of sample curves using the simultaneous fitting option of the BIAevaluation software to calculate the kinetic constants of the antibody-antigen interactions including association rate (ka), dissociation rate (kd) and affinity (KD). Curves were removed from the fitting after visual examination of the residuals and considering the value of Chi2: a minimum of 4 curves were considered for the simultaneous fitting.

B1: Clone 39-H17B11 VHH antibody (VHH)
VHH: QVQLVESGGGLVQAGGSLRLSCAASGRTFSSYAMGWFRQTPGKDREFVARIGWTGGTTIYADSVKGRFTISRDNAKNTVYLQMNSLKPEDTAVYYCAADQAGWRTAGVRNTYEYDYWGQGTQVTVSS
notes: Llama single domain antibody; also called clone 17B11; not shown: tags: c-myc tag on the soluble VHH in periplasmic extracts; FLAG and His tags on the purified VHH
Question: Does B1 bind [1]?
Answer: no binding

Question: And the Kd (pCD163-SRCR-FL-PST2-His)?
Answer: 255 µM

Question: And the koff (pCD163-SRCR-FL-PST2-His)?
Answer: 0.281 s⁻¹

Question: And the kon (pCD163-SRCR-FL-PST2-His)?
Answer: 1100 M⁻¹ s⁻¹
